Reference: patent publication US20120190819A1 (MEDICAL RESEARCH COUNCIL, published 2012)

T1: carboxymethylated papain on agarose beads (Calbiochem) (UniProt P00784 134-345, carboxymethylated)
T1 construct: also called immobilized papain; papain-agarose beads
T1 sequence (looked up): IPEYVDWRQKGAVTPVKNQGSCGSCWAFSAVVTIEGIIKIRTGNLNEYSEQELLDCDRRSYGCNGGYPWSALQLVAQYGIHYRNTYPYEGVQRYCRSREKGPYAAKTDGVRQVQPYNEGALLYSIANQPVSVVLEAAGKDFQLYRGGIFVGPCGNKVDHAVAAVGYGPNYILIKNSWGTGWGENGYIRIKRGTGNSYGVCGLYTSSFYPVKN

B1: STM (Stefin A Triple Mutant), recombinant, no insert (designed binder)
chain: MIPWGLSEAKPATPEIQEIVDKVKPQLEEKTNETYGKLEAVQYKTQVDAGTNYYIKVRAGDNKYMHLKVFNGPPGQNEDLVLTGYQVDKNKDDELTGF
notes: Expressed in E. coli from pET30a(+) with a hexa-histidine tag; also called STM triple mutant
B2: STM comprising target peptide AU1 epitope (designed binder)
chain: MIPWGLSEAKPATPEIQEIVDKVKPQLEEKTNETYGKLEAVQYKTQVDAGTNYYIKVRAGDNKYMHLKVFNGPDTYRYIGPPGQNEDLVLTGYQVDKNKDDELTGF
notes: Expressed in E. coli from pET30a(+) with a hexa-histidine tag; also called STM AU1; STM/AU1

What was measured:
[1] = molecular target: the molecule itself; experiment: SDS-PAGE after 75° C. or ice (self-association)
Procedure: We wished to ascertain whether we could insert peptides into STM without affecting its stability as a protein. We modelled a peptide aptamer by inserting the six residue “AU1” epitope tag (DTYRYI) (SEQ ID NO: 32) into the engineered loop. We wished to retain the thermostability of SteA but abolish its dimerization by domain-swapping, which is enhanced by heating. We incubated recombinant SteA, STM and STM AU1 at 75° C. or on ice for 20 minutes, and removed any denatured protein by centrifugation. […] As expected, this dimeric form is completely abolished in both STM and STM AU1 (FIG. 2A).

[2] = molecular target: the molecule itself; experiment: gel filtration after heating to 75° C. (self-association)
Procedure: To confirm that the engineered scaffold was correctly folded, we used gel filtration chromatography to ask whether we could detect any denatured or dimerized STM in its native form. Recombinant STM AU1 migrated close to its predicted size and similarly to wild type SteA (FIG. 3, panel A). When the protein preparations were heated to 75° C. before gel filtration, a proportion of SteA migrated as a dimer. […] The CD spectra of native SteA at 25° C. and 50° C. and native STM AU1 at 25° C. and 50° C.

[3] = molecular target: T1, carboxymethylated papain on agarose …; experiment: papain-agarose pull-down, western blot with anti-SteA
Procedure: Agarose beads carrying carboxymethylated papain (Calbiochem) were washed three times in EB (equilibration buffer: 50 mM sodium phosphate pH 6.5, 0.5M NaCl, 0.1% non-detergent sulfobetaines). The beads were blocked with 1 mg/ml BSA in EB for 30 mins at 4° C. and washed three more times in EB. 300 μg of recombinant SteA or STM AU1 in 1×TBS buffer was diluted into EB to produce a total of volume of 500 μL and incubated with the beads with turning end over end for 90 mins at 4° C. The beads were then washed three times in EB and resuspended in 50 μl of sample buffer for analysis by 12% SDS-PAGE gel and western blotting using an anti-steA monoclonal antibody (C5/2, Maryland Biosciences).

Binder | binding result [1] | binding result [2] | binding result [3]
B1 | no binding |  | 
B2 |  | no binding | no binding (tested: 300 µg)
